Results taken from article PMC4963197 (2016).
Each block holds one binder with its values, some of them ahead of it. Square brackets hold non-standard residues; d marks the D form. Ends that are not written are not given here. pS = N[C@@H](COP(=O)(O)O)C(=O)O

Legend:
G-actin [1] = biological target: T1, G-actin (UniProt P68135 1-377); experiment: FP; LatB-actin
G-actin [2] = biological target: T1, G-actin; experiment: FP; LatB-actin; phospho-S98

Kd (G-actin [1]): 930 nM
B1: FAM-MRTF-A(62–104) S98D (peptide)
chain: {FAM}-PNLPPLSERKNVLQLKLQQRRTREELVSQGIMPPLKDPAAFHE

Kd (G-actin [2]): 850 nM
B2: FAM-MRTF-A(62–104) phosphorylated at S98 (peptide)
chain: {FAM}-PNLPPLSERKNVLQLKLQQRRTREELVSQGIMPPLK[pS]PAAFHE

Kd (G-actin [1]): 1120 nM
B3: FAM-MRTF-A(67–98) (peptide)
chain: {FAM}-LSERKNVLQLKLQQRRTREELVSQGIMPPLKS

Kd (G-actin [2]): 630 nM
B4: FAM-MRTF-A(67–98) phosphorylated at S98 (peptide)
chain: {FAM}-LSERKNVLQLKLQQRRTREELVSQGIMPPLK[pS]

Kd (G-actin [1]): 1050 nM
B5: FAM-MRTF-A(62–104) (peptide)
chain: {FAM}-PNLPPLSERKNVLQLKLQQRRTREELVSQGIMPPLKSPAAFHE
